Tested on: MS2 coat protein
Assay: apparent KD of MS2 coat protein; designed switch direction (-1 OFF switch, 1 ON switch): 1; higher = weaker reporter binding
How it was run: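 RNA switches sharing common flanks were transcribed by stalled E. coli RNA polymerase on Illumina chips. A doubling series of SNAP-549-labelled MS2 coat protein, from 0.7 or 1.5 nM to 3 µM, was applied in Tris-HCl pH 7.5 buffer with KCl, MgCl2, BSA, DTT, tRNA and Tween-20. Each step lasted 0.8–1.5 h at the bottom of the series and 10–20 min at the top. Normalised cluster fluorescence was curve-fitted, giving apparent KD as the per-design median over clusters.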

[1] = input ligand: microRNA oligo, concentration not stated
[2] = Eterna round: R95, input ligand: FMN 200 uM
[3] = Eterna round: R95, input ligand: microRNA oligo, concentration not stated
[4] = Eterna round: R95, input ligand: none

Sequence | apparent KD of MS2 coat protein [1] [µM] | apparent KD of MS2 coat protein (input ligand: FMN 200 uM) [µM] | apparent KD of MS2 coat protein (input ligand: none) [µM] | apparent KD of MS2 coat protein [2] [µM] | apparent KD of MS2 coat protein [3] [µM] | apparent KD of MS2 coat protein [4] [µM]
AAUUAAUUAAUACAUGAGGAUCACCCAUGUAAUUAUUAGAUCUAGGAUAUCAGCUCGAUUAGAGCUGAGAAGGAGAUCACAUGU [SSNG3/18-B2] (Eterna round: R96, puzzle: Same State NG 3) | 0.0136 |  |  |  |  | 
CGACACACGGCAGGAUAUCGAUUCCAAAGGAAUCGAGAAGGGCCUCAUGUCGUGGAAACGUGACAUGAGGAUCACCCAUGUUGC [Omei SS(NG)1 Cv18] (Eterna round: R96, puzzle: Same State NG 1) | 0.0116 | 0.0268 | 0.0246 |  |  | 
AGCACGAUUCGAGGAUAUGAGUCACAUGAGGAUCACCCAUGUCUAAUGGAUGGGACGGCCCAACCUCAGAAGGCGAUACCGGCA [Eternabot solution 24] (Eterna round: R96, puzzle: Same State NG 2) | 0.307 | 0.392 | 0.338 |  |  | 
AGUCCAGCCUGAGCUGGACAAAAGCAUGUACAUGAGGAUCACCCAUGUCAUGUACAAGCUUUUUGCUCGUCUUAUUA [Mat - hsa-mir-208a - Mod of JL - D24] (puzzle: Sensor for hsa-mir-208a) |  |  |  | 0.694 | 0.0163 | 0.722
AUUGCUUACGCAGGAUAUGAUGCGGAAACUGCGUCAGAAGGGUGAAAAGAAUCGUUGCAAGAAGACAUGAGGAUCACCCAUGUC [SameState NG1 #95] (Eterna round: R96, puzzle: Same State NG 1) | 0.023 | 0.02 | 0.0305 |  |  | 
AGUCCAGCCUGAGCUGGACAAAAGCAUGUACAUGAGGAUCACCCAUGUUCAUGUACAAGCUUUUUGCUCGUCUUAGA [salish99_208a_r3_059] (puzzle: Sensor for hsa-mir-208a) |  |  |  | 0.709 | 0.0154 | 0.732
GUGGUGCUUCUAGGAUAUUCAGCGGCCCUCACAUGAGGAUCACCCAUGUUCACAAGAGAAACCAUGAAGAAGGAGAACUACAAU [Eternabot solution 42] (Eterna round: R96, puzzle: Same State NG 2) | 0.0399 | 0.0456 | 0.0558 |  |  | 
UUAAAACAUGAGGAUCACCCAUGUCAUCUAAGUCGAGGAUAUGGGCAUAUAAUAUAAGAACCAGAAGGCGAAUAUU [Mat - Same State 1 - Mod of UCT - D26] (puzzle: Same State 1) |  |  |  | 0.113 | 0.0377 | 0.0584
AUUAACAUGAGGAUCACCCAUGUUACGAGCUUAGCUCGGACACAGGAUAUCCGGUCCUAGAGACCGGAGAAGGGUGCCUUAUAA [Zara MOD4] (Eterna round: R96, puzzle: Same State NG 3) | 0.123 | 0.742 | 0.265 |  |  | 
GGCCGGAGUCAAGGAUAUGCUACCGUUUCGGUAGCAGAAGGUGAUCACAUGAGGAUCACCCAUGUUUACUGGGAGACCACGGCC [JL SSNG1 3.70] (Eterna round: R96, puzzle: Same State NG 1) | 0.134 | 0.105 | 0.166 |  |  | 
AAACAGCCGAACGGAGGGCCACAUGAGGAUCACCCAUGUACAUAGGAUAUCAUGCCAACGAGGCAUGAGAAGGGUGAUUAAAAC [Usinvema] (Eterna round: R96, puzzle: Same State NG 3) | 0.35 | 0.0117 | 0.359 |  |  | 
UUUAGAUUCAGAGGAUAUUGAUGUUGUAAGUAACAAGAAGGCUGAUUGGUUAGAAUUGUUUAUUAACAUGAGGAUCACCCAUGU [JR_SSNG1_Sub010] (Eterna round: R96, puzzle: Same State NG 1) | 0.0282 | 0.0181 | 0.0306 |  |  | 
GGGCCAGCUUUUGCUGGGCCAAAGCUUGCACAUGAGGAUCACCCAUGUCGUGUACACGCUUCCUGCCCGUCUUGUUU [Photon Torp-20] (puzzle: Sensor for hsa-mir-208a) |  |  |  | 0.0265 | 0.0166 | 0.0294
CUAAAACAUGAGGAUCACCCAUGUCAACAAAGUCGAGGAUAUGGGCAAAUAAAAUAAGAACCAGAAGGCGAAUAAG [salish99_SS1_r3_013] (puzzle: Same State 1) |  |  |  | 0.0819 | 0.274 | 0.543
AUAAAACAUGAGGAUCACCCAUGUCAACAAAGUCGAGGAUAUGGGCAAUUAAAAUAAGAACCAGAAGGCGAAUAAU [salish99_ss1_r3_025] (puzzle: Same State 1) |  |  |  | 0.0264 | 0.138 | 0.4
AUCCUACAUGAGGAUCACCCAUGUGACGCCUCAAUAGGAUAUCGGGCCCAAAAUCGGGCACGAGAAGGAUUGAAGC [Aveso] (puzzle: Same State 1) |  |  |  | 0.0852 | 0.172 | 0.163

Sequence | apparent KD of MS2 coat protein [1] [µM] | apparent KD of MS2 coat protein (input ligand: FMN 200 uM) [µM] | apparent KD of MS2 coat protein (input ligand: none) [µM] | apparent KD of MS2 coat protein [2] [µM] | apparent KD of MS2 coat protein [3] [µM] | apparent KD of MS2 coat protein [4] [µM]
GGACGUCAAUAUGAAUUCCCACAUGAGGAUCACCCAUGUCAUGAGGAUAUGGAUCCUAAUUGGAUCCAGAAGGCAUGGACGUCC [Fiskers NG3ss - 37] (Eterna round: R96, puzzle: Same State NG 3) | 0.013 | 0.0178 | 0.0178 |  |  | 
UUUAUAUUCAGAGGAUAUUAAUGUAGUAUAAUAUAAGAAGGCUGUUUGUUUUGUAAAGUUAUUAUACAUGAGGAUCACCCAUGU [JR_SSNG1_Sub083] (Eterna round: R96, puzzle: Same State NG 1) | 0.0135 |  |  |  |  | 
AGUCCAGCCUGAGCUGGACAAAAGCAUGUACAUGAGGAUCACCCAUGUCAUGUACAAGCUUAUUGCUCGUCUUAAUA [Mat - hsa-mir-208a - Mod of JL - D40] (puzzle: Sensor for hsa-mir-208a) |  |  |  | 0.226 | 0.0167 | 0.251
GCUGCAAGGGCAGGAUAUGGGUCCAAAGCGCAAGUGCGCUUUGGUACAUGAGGAUCACCCAUGUCCCAGAAGGGCCCAAGCGGC [Quzaceza] (Eterna round: R96, puzzle: Same State NG 2) | 0.0831 | 0.0156 | 0.14 |  |  | 
GUAGCAUACCGAGGAUAUUCAUAUACAUGAGGAUCACCCAUGUUUAUAGGUCGAUUACGACCUUGGGAGAAGGCGGAAUGCUAC [Xeonanis - 20 Mod31] (Eterna round: R96, puzzle: Same State NG 2) | 0.00968 | 0.0108 | 0.0139 |  |  | 
ACUUGCUUUUUGCUCAUUUUUUGUCCGUAACAUGAGGAUCACCCAUGUGUAGAUUAUGUGUUGUUUUUGAUACGUGA [JR_SHM208A_Sub068] (puzzle: Sensor for hsa-mir-208a) |  |  |  | 0.0299 | 0.0295 | 0.0346
GUUACAUGAGGAUCACCCAUGUAUGUGUGGGAGUAAGUGUCUUAGGAUAUCUAUGAUGUAAUUUAAGAGAAGGAAGAUUGUUGU [JMF's solution 76] (Eterna round: R96, puzzle: Same State NG 3) | 0.128 | 0.135 | 0.15 |  |  | 
GUUACAUGAGGAUCACCCAUGUAUGUGUGGGAGUAAGUGUCUUAGGAUAUCUAUGAAUUAAUUUAAGAGAAGGAAGAUUGUUGU [JMF's solution 73] (Eterna round: R96, puzzle: Same State NG 3) | 0.0733 | 0.107 | 0.112 |  |  | 
CGGCGCUGUCGAGAGGAUAUGCGGUGAUGGACAUGAGGAUCACCCAUGUUAGCGAUAGCAUCACGGUAGAAGGCUCUACGGCUGG [Soteed Omei mod 20] (puzzle: Same State 2) |  |  |  | 0.0107 | 0.0186 | 0.0262
CGCAUCCUUGUUACAUGAGGAUCACCCAUGUUUUCGAGUGGAGAGGAUAUCGUAACAGUAUUUUUCGAGAAGGCUCUAUAGUUU [JR_SSNG3_Sub080] (Eterna round: R96, puzzle: Same State NG 3) | 0.0376 | 0.0417 | 0.0569 |  |  | 
GGAGGACAUGAGGAUCACCCAUGUAAAUGGGCGCUAGGAUAUGCGAGAGGGUGGAGAGGAGCAGAAGGAGUGGAUA [JR_SS1_Sub039] (puzzle: Same State 1) |  |  |  | 0.105 | 0.18 | 0.207
AGCUAUUAAUCAGGAUAUGGUGACAUGAGGAUCACCCAUGUAUAGAUGAUUAAAUGUGGUCUAUACCAGAAGGGAUUACUAACA [SameState NG2 #52] (Eterna round: R96, puzzle: Same State NG 2) | 0.247 | 0.0555 | 0.356 |  |  | 
AGAAAAGAAAGAAAGGAUAUACAGAAAAGAACAUGAGGAUCACCCAUGUAAGAAGAGGAGGGAGGGUAGAAGGUUCAAGAAAGAA [JR_SS2_Sub017] (puzzle: Same State 2) |  |  |  | 0.021 | 0.033 | 0.0193
GUACAUAUUAUAGGAUAUCACGUCGAUUAGACGUGAGAAGGAUAAUCCCACAUGAAUAUUAAUACAUGAGGAUCACCCAUGUAC [SSNG1/18-A2] (Eterna round: R96, puzzle: Same State NG 1) | 0.0663 | 0.0833 | 0.051 |  |  | 
UUGCUCGGGUGAGGAUAUGCCGCCGUUUCGGCUGCAGAAGGUGCUACGUUACAUGAGGAUCACCCAUGUCUCUGUUGUUUCGUC [salish99_SSNG1_r04_968] (Eterna round: R96, puzzle: Same State NG 1) | 0.0281 | 0.0651 | 0.0523 |  |  | 

Reference: the supplement of paper PMC9170038
